Laboratory results taken from patent US20110092681A1.
“And” between values parts separate entries of the source, which are not always exact repeats. Equal entries are not always repeated.

Molecular target: rFVIII (recombinant Factor VIII) (UniProt P00451)
Test: ELISA chromogenic assay (ECA): rFVIII incubated with rVWF, complex captured on anti-VWF antibody, bound FVIII read by chromogenic assay

For “human recombinant VWF (rVWF) (from UniProt P04275 764-2813)”, the FVIII binding (%) was 51.7% and 64.6% and 63.1%.
